Source: paper PMC9078787

Biological target: Fcγ receptor IIIa (UniProt P08637)
Chain of UniProt P08637 (P08637 17-208): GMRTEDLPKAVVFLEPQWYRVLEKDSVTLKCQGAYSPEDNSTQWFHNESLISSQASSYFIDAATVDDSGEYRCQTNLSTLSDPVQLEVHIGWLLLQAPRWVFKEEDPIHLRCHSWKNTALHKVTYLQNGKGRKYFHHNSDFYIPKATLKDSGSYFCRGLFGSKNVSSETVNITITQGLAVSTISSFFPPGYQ

ADCC reporter-gene assay (Jurkat-CD16a-FcεRIγ-NFAT-luc effector cells, SK-BR-3 target cells), relative activity by EC50; batch H0323B07 (%afucose 4.2), the reference standard (%relative activity): 100 | ADCC reporter-gene assay, relative activity by EC50; batch H0324B01 (%afucose 4.1) (%relative activity): 96 | ADCC reporter-gene assay, relative activity by EC50; batch H0337B01 (%afucose 2.6) (%relative activity): 82 | ADCC reporter-gene assay, relative activity by EC50; batch H0340B01 (%afucose 2.4) (%relative activity): 73 | ADCC reporter-gene assay, relative activity by EC50; batch H0371B01 (%afucose 2.1) (%relative activity): 91 | ADCC reporter-gene assay, relative activity by EC50; batch H0382B04 (%afucose 3.7) (%relative activity): 84 | ADCC reporter-gene assay, relative activity by EC50; batch H0383B01 (%afucose 1.8) (%relative activity): 78 | ADCC reporter-gene assay, relative activity by EC50; batch H0388B01 (%afucose 2.3) (%relative activity): 81 | ADCC reporter-gene assay, relative activity by EC50; batch H0389B01 (%afucose 1.9) (%relative activity): 76 | ADCC reporter-gene assay, relative activity by EC50; batch H0391B01 (%afucose 2.1) (%relative activity): 71 | ADCC reporter-gene assay, relative activity by EC50; batch H0394B01 (%afucose 2.1) (%relative activity): 73 | ADCC reporter-gene assay, relative activity by EC50; batch H0395B02 (%afucose 2.1) (%relative activity): 76 | ADCC reporter-gene assay, relative activity by EC50; batch H0396B01 (%afucose 2.1) (%relative activity): 71 | ADCC reporter-gene assay, relative maximum response; batch H0323B07 (%afucose 4.2), the reference standard (%relative activity): 100 | ADCC reporter-gene assay, relative maximum response; batch H0324B01 (%afucose 4.1) (%relative activity): 103 | ADCC reporter-gene assay, relative maximum response; batch H0337B01 (%afucose 2.6) (%relative activity): 86 | ADCC reporter-gene assay, relative maximum response; batch H0340B01 (%afucose 2.4) (%relative activity): 88 | ADCC reporter-gene assay, relative maximum response; batch H0371B01 (%afucose 2.1) (%relative activity): 72 | ADCC reporter-gene assay, relative maximum response; batch H0382B04 (%afucose 3.7) (%relative activity): 96 | ADCC reporter-gene assay, relative maximum response; batch H0383B01 (%afucose 1.8) (%relative activity): 70 | ADCC reporter-gene assay, relative maximum response; batch H0388B01 (%afucose 2.3) (%relative activity): 74 | ADCC reporter-gene assay, relative maximum response; batch H0389B01 (%afucose 1.9) (%relative activity): 70 | ADCC reporter-gene assay, relative maximum response; batch H0391B01 (%afucose 2.1) (%relative activity): 78 | ADCC reporter-gene assay, relative maximum response; batch H0394B01 (%afucose 2.1) (%relative activity): 74 | ADCC reporter-gene assay, relative maximum response; batch H0395B02 (%afucose 2.1) (%relative activity): 75 | ADCC reporter-gene assay, relative maximum response; batch H0396B01 (%afucose 2.1) (%relative activity): 80
Substance: Pertuzumab (trademark: Perjeta®) (antibody)
